From patent publication US20230121248A1 come the findings set out here.

What all share (assay): cell-based or functional assay
The target in assay [1] is anti-CD19 chimeric antigen receptor on anti-CD19 CAR-T cells.
Assay [2] concerns the target mock CAR-T cells (CAR-T not able to recognize CD19).
The target in assay [3] is native JAM-A on CAL27 cells (UniProt Q9Y624).
Sequence of UniProt Q9Y624 (Q9Y624 28-299 limits assumed): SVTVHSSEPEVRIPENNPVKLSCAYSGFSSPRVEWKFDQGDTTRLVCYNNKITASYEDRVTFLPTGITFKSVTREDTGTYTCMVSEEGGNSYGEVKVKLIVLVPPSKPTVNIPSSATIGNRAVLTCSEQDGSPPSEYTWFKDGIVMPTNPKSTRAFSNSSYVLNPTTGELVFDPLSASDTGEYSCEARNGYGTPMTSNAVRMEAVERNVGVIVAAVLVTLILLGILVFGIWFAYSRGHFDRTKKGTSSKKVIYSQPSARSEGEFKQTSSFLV

Take “CM19XA (CD19-GS linker-JAM-A-pHLIP fusion protein with N-terminal 6xHis tag)”: in assay [1], the proliferation (ATP fold of control) of A549 cells 72 h after the anti-CD19 CAR-T killing assay, 1 uM CM19XA was 0.74 fold and the proliferation (ATP fold of control) of CAL27 cells 72 h after the anti-CD19 CAR-T killing assay, 1 uM CM19XA came to 0.72 fold. In assay [2], this substance yielded a proliferation (ATP fold of control) of A549 cells 72 h after the mock CAR-T killing assay, 1 uM CM19XA of 1.03 fold and a proliferation (ATP fold of control) of CAL27 cells 72 h after the mock CAR-T killing assay, 1 uM CM19XA of 1.01 fold.

In the case of “soluble JAM-A protein (extracellular domain of JAM-A fused with MBP) (from UniProt Q9Y624 28-238)”, the proliferation of CAL27 cells (ATPlite, ratio to untreated control), 1 uM soluble JAM-A in assay [3] came to 1.24.
